Test [1] has as its system Wnt induced calcium release. Put plainly: Wnt induced [Ca2+]i release after preincubation with thapsigargin or membrane potential regulating compounds. The class given is cell-based. The note with it: PC3 cells, thapsigargin 5 μM for 15 min; Wnt5A 100 ng/ml, Wnt9B 200 ng/ml, Wnt10B 200 ng/ml. The protocol:
(§1) The imaging protocol was developed in the inventor's laboratory and has been described in detail, elsewhere (Wang at al., (2010) PLoS ONE 5, e10456). Briefly, 100000-200000 PC3, MCF7, 253J or Cos 7 cells were plated on 35 mm FluoroDish (WPI) and grown for 48 h; calcium indicators Fluo-4 (Invitrogen) and FuraRed (Invitrogen) at 1 ng/ml were added to FluoroDish containing only 1 ml of culture medium and incubated for 15-20 min at 37° C. The culture medium was removed and washed (×2) and replaced with 1 ml PBS. Live cell calcium Imaging was performed on an Olympus FluoView FV 1000 confocal microscope (Olympus KeyMed) equipped with a 20× dry objective (numerical aperture=0.75). Calcium indicators were excited with an argon laser line (488 nm) and emissions recorded in the green channel (500-560 nm) for Fluo-4 and red channel (600-700 nm) for FuraRed after addition of vehicle control (PBS) or Wnt X (30-600 ng/ml). Images were acquired every 1.1 or 2.2 seconds for up to 600-800s; image and data acquisition was performed using FluoView 1000 software (Olympus, UK). Fluorescent intensity was measured and data exported as a tab delimited file for further analysis using a spreadsheet. All imaging experiments were performed in duplicate; intracellular calcium at 100 ng/ml was measured in at least 3-12 different passages (passage numbers 25 to 37) of cell line for each Wnt ligand. Wnt 11 was tested in at least 5 different passages at 3 different concentrations. […]
To measure the effect of changes in membrane potential on [Ca^2+]i release using the protocol described above, in some experiments, external solution (PBS) was substituted with varying concentrations of KCl. In other experiments chemical inhibitors of K^+ channels such as TEA, CsCl or tolbutamide (Sigma-Aldrich) were added to the cells grown on FluoroDish, at 37° C., at least 5 min prior to addition of Wnt ligands.
After image acquisition, regions of interest (ROI) were drawn over individual PC3 cells (up to 25) in a single frame and calcium intensity measurements were made using FluoView 1000 software (Olympus, UK). The measurements were exported as a tab delimited file into a spreadsheet for further analysis and Fluo4/Fura Red ratios were calculated. The waveform, a product of the ratio of Fluo4 and FuraRed over the period of measurement was used to measure the kinetics of the activation of [Ca^2+]i release in PC3 cells, in response to different Wnt ligands. The time constants (rise, dwell and fall times) were calculated by first fitting the Fluo4/FuraRed ratio to a single Gaussian function (Origin Lab Corp., MA); a lower (10%) and upper (90%) amplitude thresholding method was then used to calculate the time constants (s). Statistical significance was calculated using Mann Whitney U test.

In another test the test system is PC3 cells. Put plainly: Intranuclear calcium and membrane potential imaging (Fluo4 and FM4-64). The class given is cell-based. The following applies: Wnt5A 100 ng/ml. The protocol: as §1, with “[…])” for “KeyMed)”, “ligand.” for “ligand. Wnt 11 was tested in at least 5 different passages at 3 different concentrations.”

From patent publication US20160271157A1, “BETA-CATENIN” (UCL BUSINESS PLC, priority 2013, published 2016) come the findings set out here.

Regarding `C/C=C(/C)C(=O)O[C@H]1C(C)=C2[C@H]([C@@H]1OC(=O)CCCCCCC)[C@@](C)(OC(C)=O)C[C@H](OC(=O)CCC)[C@@]1(O)[C@H]2OC(=O)[C@@]1(C)O` [thapsigargin, reference compound], the “increase in [Ca2+]i in response to Wnt ligands (5A, 9B and 10B) after thapsigargin” value in test [1] is given as “abolished”.

B1: Wnt5A: Recombinant Wnt peptide purchased from R&D systems (protein, UniProt P41221 62-380, looked up)
Protein Wnt-5a: IIGAQPLCSQLAGLSQGQKKLCHLYQDHMQYIGEGAKTGIKECQYQFRHRRWNCSTVDNTSVFGRVMQIGSRETAFTYAVSAAGVVNAMSRACREGELSTCGCSRAARPKDLPRDWLWGGCGDNIDYGYRFAKEFVDARERERIHAKGSYESARILMNLHNNEAGRRTVYNLADVACKCHGVSGSCSLKTCWLQLADFRKVGDALKEKYDSAAAMRLNSRGKLVQVNSRFNSPTTQDLVYIDPSPDYCVRNESTGSLGTQGRLCNKTSEGMDGCELMCCGRGYDQFKTVQTERCHCKFHWCCYVKCKKCTEIVDQFVCK
Regarding B1, the “delay of increase in intranuclear Ca2+ after start of increase in [Ca2+]i” value in the test with PC3 cells (Fluo4 and FM4) is on record as roughly 33 s. The “FM4 signal (depolarization) of cell and nuclear membranes” value in the test on PC3 cells (t=250s) was “increase in the FM4 signal in the cell and nuclear membranes”.
